These results are taken from article PMC9371665.

For this assay, the target named is TnsB transposase of the type V-K CAST element from Scytonema hofmanni (ShCAST), full length (Scytonema hofmanni). Nature of the assay: cryo-EM structure; TnsB strand-transfer complex: strand-transfer DNA and purified TnsB mixed 1:6, 26 mM Hepes pH 7.5, 5 mM Tris-HCl pH 7.5, 20 mM KCl, 100 mM NaCl, 0.2 mM MgCl2, 15 mM MgOAc2, 37 °C 40 min, then size-exclusion chromatography; C2 symmetry imposed; 3.7 Å.

A word on the stoichiometry N: it is a count of units in the complex or per binding partner.

The substance “TnsB transposase of the type V-K CAST element from Scytonema hofmanni (ShCAST), full length (enzyme)” had a stoichiometry N of 4.
